Test results reported in patent publication US12030929B2, “Fusobacterium nucleatum amyloid-like FadA for diagnosis and treatment of Fn-mediated pathogenesis” (The Trustees of Columbia University in the City of New York, priority 2021, dated 2024).

Tests used:
[1] = tested on: Fn binding to human CRC cells DLD1; experiment: Cell culture attachment assay, DLD1; format: cell-based; settings: 50 μg FadAc pre-incubated with DLD1 for 45 min
HCT116 xenograft tumors = settings: shown previously (Rubinstein et al., 2013); cited from earlier work
[2] = tested on: anti-amyloid oligomer antibody A11; experiment: Slot blot assay with anti-amyloid oligomer antibody A11; format: binding; settings: 10 μg recombinant protein; A11 at 1:5,000 dilution
Procedure: FIG. 8A-8C. 8A. SDS-PAGE analysis of recombinant FadAc and its variants. The proteins were purified as previously described (Xu et al., 2007). Approximately 2.5 μg of each purified protein were loaded onto 12% SDS-PAGE. Following electrophoresis, the gel was stained with Coomassie Blue G-250. 8B. Reactivities of recombinant FadA and its variants with anti-amyloid oligomer antibody A11. A total of 10 μg each of recombinant protein mFadA, FadAc, FadA-L-9A, FadA-L14A, FadA-S71A, and FadA-L76A purified from E. coli was slot-blotted onto nitrocellulose and incubated with polyclonal anti-amyloid oligomer antibody A11 at 1:5,000 dilution. Amyloid-like recombinant Rim4 (Berchowitz et al., 2015) was used as a positive control and histone H1 was used as a negative control. Ponceau stain (pink color) is shown as a loading control. 8C. Western blot analysis of wild-type Fn 23726 (1) and mutants Δfap2 (2) using anti-FadA mAb 7H7. The bottom panel is Coomassie blue stain for loading control.
(§1) Slot blot assay. Ten micrograms each of purified recombinant protein was slot-blotted onto nitrocellulose membrane (BioRad) and assayed for reactivity with polyclonal anti-amyloid fibril antibodies OC (α-amyloid fibril OC, Sigma-Aldrich CAT #AB2286) at 1:5,000 dilution and goat-anti-rabbit IgG (GE Healthcare) at 1:10,000 dilution, or polyclonal anti-amyloid oligomer antibody A11 (α-oligomer A11 at 1:5,000 dilution, ThermoFisher Scientific CAT #AHB0052) and goat-anti-rabbit IgG at 1:10,000 dilution, followed by detection with ECL Prime (GE Healthcare). Amyloid-like recombinant Rim4 was used as a positive control (Berchowitz et al., 2015) and histone H1 was used as a negative control. Loading was assessed by Ponceau stain (Sigma CAT #P7170).

[3] = Thioflavin-T binding assay; settings: 10 μM Thioflavin-T; for Thioflavin-T binding in the presence of 0.1% SDS: FadA proteins 0.8 mg/ml; for Thioflavin-T binding: without SDS, 10 min
Procedure: (§2) FIG. 2A-2G. Pre-FadA as a key component of amyloid-like FadA. 2A. Single-letter amino acid (aa) sequence of FadA (SEQ ID NO:28). The intact pre-FadA consists of 129 aa, with the first 18-aa (top row) constitute the signal peptide. The remaining 111 aa constitute mFadA. The residues that are replaced in the mutant proteins used in this study are shown in red. 2B. Analysis of detergent resistant recombinant FadA polymers expressed in E. coli. An aliquot of 50 μg detergent-resistant pellets prepared from E. coli BL21(DE3) carrying the cloning vector pET21(b), pYWH417-6 (p_FadAc), or pYWH418 (p_mFadA) were analyzed by SDD-AGE, followed by Western blot analysis. FadA polymers were only detected in E. coli expressing FadAc, but not in mFadA or the vector control. 2C. Reactivity of recombinant FadA and its variants with anti-amyloid fibril antibody OC. A total of 10 μg each of recombinant protein mFadA, FadAc, FadA-L-9A, FadA-L14A, FadA-S71A, and FadA-L76A purified from E. coli was slot-blotted onto nitrocellulose and incubated with polyclonal OC antibody at 1:5,000 dilution. Amyloid-like recombinant Rim4 (Berchowitz et al., 2015) was used as a positive control and histone H1 was used as a negative control. Ponceau stain (pink color) is shown as a loading control. 2D. Thioflavin-T binding assay. FadA proteins at indicated concentrations were incubated with 10 μM Thioflavin-T at room temperature for 10 min. The fluorescent intensity was measured at excitation wavelength of 440 nm and emission wavelength of 500 nm. The experiment was performed in duplicate and repeated three times. *p<0.05, **p<0.01, ***p<0.001 (compared to BSA, t-test). 2E. Thioflavin-T binding assay in the presence of 0.1% SDS. FadA proteins (0.8 mg/ml) were incubated with 10 μM Thioflavin-T at room temperature for 10 min. The fluorescent intensity was measured at excitation wavelength of 440 nm and emission wavelength of 500 nm. The experiment was performed in duplicate and repeated three times. *p<0.05, **p<0.01 (compared to BSA, t-test). 2F. Western blot analysis of Fn12230 (Fn), fadA-deletion mutant US1 (ΔfadA) and spontaneous mutant lam following SDS-PAGE. A total of 400 μl of each culture grown to OD600 of 1.0 was pelleted and loaded onto 12% SDS-PAGE. FadA protein was detected using anti-FadA mAb 7H7 at 1:4,000 dilution. […] 2G. Analysis of amyloid-like FadA produced by Fn 23726 and its Δfap2 mutant. An aliquot of 50 μg detergent-resistant pellets was loaded onto each lane, followed by SDD-AGE and Western blot analysis as described above.
Thioflavin-T binding assay. Thioflavin-T assay was conducted as previously described (Tukel et al., 2009). A mixture of 50 μl of FadA proteins and 50 μl of 10 μM Thioflavin-T was added to a black 96-well plate and incubated for 10 min at room temperature. After incubation, the fluorescence intensity was determined using a SpectraMax M5 microplate reader at excitation wavelength of 440 nm and emission wavelength of 500 nm. For SDS stability test, the FadA proteins were pre-incubated in 0.1% SDS for 30 min at room temperature, followed by Thioflavin-T binding assay as described above.

[4] = SDD-AGE and Western blot of detergent-resistant polymers; format: physicochemical; settings: expressed in E. coli; SDD-AGE, Western blot with mAb 7H7
Procedure: FIG. 2A-2G. Pre-FadA as a key component of amyloid-like FadA. 2A. Single-letter amino acid (aa) sequence of FadA (SEQ ID NO:28). The intact pre-FadA consists of 129 aa, with the first 18-aa (top row) constitute the signal peptide. The remaining 111 aa constitute mFadA. The residues that are replaced in the mutant proteins used in this study are shown in red. 2B. Analysis of detergent resistant recombinant FadA polymers expressed in E. coli. An aliquot of 50 μg detergent-resistant pellets prepared from E. coli BL21(DE3) carrying the cloning vector pET21(b), pYWH417-6 (p_FadAc), or pYWH418 (p_mFadA) were analyzed by SDD-AGE, followed by Western blot analysis. FadA polymers were only detected in E. coli expressing FadAc, but not in mFadA or the vector control. 2C. Reactivity of recombinant FadA and its variants with anti-amyloid fibril antibody OC. A total of 10 μg each of recombinant protein mFadA, FadAc, FadA-L-9A, FadA-L14A, FadA-S71A, and FadA-L76A purified from E. coli was slot-blotted onto nitrocellulose and incubated with polyclonal OC antibody at 1:5,000 dilution. […] The fluorescent intensity was measured at excitation wavelength of 440 nm and emission wavelength of 500 nm. […] The fluorescent intensity was measured at excitation wavelength of 440 nm and emission wavelength of 500 nm. […] FadA protein was detected using anti-FadA mAb 7H7 at 1:4,000 dilution. […]

[5] = tested on: anti-amyloid fibril antibody OC; experiment: Slot blot assay with anti-amyloid fibril antibody OC; format: binding; settings: 10 μg recombinant protein; OC at 1:5,000 dilution
Procedure: as §2, §1

[6] = Circular dichroism (CD) test; format: physicochemical; settings: wavelength range 190-250 nm; 0.2 mg/ml protein
Procedure: Circular dichroism (CD) test. CD was used to evaluate the secondary structure of FadA and its mutants. One hundred microliter of 0.2 mg/ml purified FadA was analyzed by Chirascan V100 Spectrometer using a 1 mm path-length fused quartz cell. The measurements are an average of three scans for each sample, captured at a scan rate of 1 sec., bandwidth and step size of 1 nm, over a wavelength range of 190-250 nm. CD spectra were recorded and analyzed with BestSel server (see www at bestsel.elte.hu/).

B1: FadAc: recombinant active heterogeneous complex of pre-FadA and mFadA (protein)
chain 1: MKKFLLLAVLAVSASAFAATDAASLVGELQALDAEYQNLANQEEARFNEERAQADAARQALAQNEQVYNELSQRAQRLQAEANTRFYKSQYQELASKYEDALKKLEAEMEQQKAVISDFEKIQALRAGN
chain 2: ATDAASLVGELQALDAEYQNLANQEEARFNEERAQADAARQALAQNEQVYNELSQRAQRLQAEANTRFYKSQYQELASKYEDALKKLEAEMEQQKAVISDFEKIQALRAGN
inhibition of Fn binding to DLD1 [1]: effectively inhibited | stimulation of xenograft tumor growth (HCT116 xenograft tumors): stimulated xenograft tumor growth | reactivity with anti-amyloid oligomer antibody A11 [2]: reacted | Thioflavin-T binding in the presence of 0.1% SDS [3]: bound Thioflavin-T | formation of detergent-resistant polymers [4]: formed detergent-resistant polymers | reactivity with anti-amyloid fibril antibody OC [5]: reacted | α helix (%) [6]: 47.2% | β strand (%) [6]: 9.6%

B2: mFadA: cleaved mature form of FadA, 111 aa residues without the signal peptide (protein)
chain: ATDAASLVGELQALDAEYQNLANQEEARFNEERAQADAARQALAQNEQVYNELSQRAQRLQAEANTRFYKSQYQELASKYEDALKKLEAEMEQQKAVISDFEKIQALRAGN
stimulation of xenograft tumor growth (HCT116 xenograft tumors): not | reactivity with anti-amyloid oligomer antibody A11 [2]: reacted weakly | Thioflavin-T binding in the presence of 0.1% SDS [3]: did not bind Thioflavin-T | Thioflavin-T binding [3]: bound more Thioflavin-T than FadAc | formation of detergent-resistant polymers [4]: did not form polymers | reactivity with anti-amyloid fibril antibody OC [5]: not with the anti-fibril OC | α helix (%) [6]: 27.9% | β strand (%) [6]: 18.8%

B3: L14A (protein)
chain: ATDAASLVGELQAADAEYQNLANQEEARFNEERAQADAARQALAQNEQVYNELSQRAQRLQAEANTRFYKSQYQELASKYEDALKKLEAEMEQQKAVISDFEKIQALRAGN
reactivity with anti-amyloid oligomer antibody A11 [2]: did not react | Thioflavin-T binding [3]: did not bind Thioflavin-T | reactivity with anti-amyloid fibril antibody OC [5]: did not react | α helix (%) [6]: 44.2% | β strand (%) [6]: 11.6%

B4: L76A (protein)
chain: ATDAASLVGELQALDAEYQNLANQEEARFNEERAQADAARQALAQNEQVYNELSQRAQRLQAEANTRFYKSQYQEAASKYEDALKKLEAEMEQQKAVISDFEKIQALRAGN
reactivity with anti-amyloid oligomer antibody A11 [2]: did not react | reactivity with anti-amyloid fibril antibody OC [5]: did not react

B5: S71A (protein)
chain 1: MKKFLLLAVLAVSASAFAATDAASLVGELQALDAEYQNLANQEEARFNEERAQADAARQALAQNEQVYNELSQRAQRLQAEANTRFYKSQYQELASKYEDALKKLEAEMEQQKAVISDFEKIQALRAGN
chain 2: ATDAASLVGELQALDAEYQNLANQEEARFNEERAQADAARQALAQNEQVYNELSQRAQRLQAEANTRFYKAQYQELASKYEDALKKLEAEMEQQKAVISDFEKIQALRAGN
reactivity with anti-amyloid oligomer antibody A11 [2]: reacted | Thioflavin-T binding in the presence of 0.1% SDS [3]: bound Thioflavin-T | reactivity with anti-amyloid fibril antibody OC [5]: reacted | α helix (%) [6]: 49.1% | β strand (%) [6]: 8%
